Reference: patent US20230212319A1, “NOVEL ANTIGEN BINDING DOMAINS AND SYNTHETIC ANTIGEN RECEPTORS INCORPORATING THE SAME” (University of Southern California, priority 2020, published 2023)

B1: 22124 (protein)
chain: MALPVTALLLPLALLLHAARPEVQLVESGGGLVQAGGSLRLSCAASGRTFSMGWFRQAPGKEREFVAAITYSGGSPYYADSVKGRFTISRDNAKNTVYLQMNSLKPEDTAVYYCAANPTYGSDWNAENWGQGTQVTVSSGGGGSGGGGSQLQLQESGPGLVKPSETLSLTCTVSGGSISSGDYYWGWIRQPPGKGLEWIGSISYSGSTYYNPSLKSRVTISVDTSRNQFSLKLSSVTAADTAVYYCTREDSSNWRSRGQGTLVTVSSGTGGGGSGGGGSGGGGSEFDIQMTQSPSSLSASVGDRVTITCKASDHINNWLAWYQQKPGQAPKLLIYGATTLETGVPSRFSGSGSGTDYTLTISSLQPEDFATYYCQQSWNTPWTFGQGTKLEIKRLEIQNPDPAVYQLRDSKSSDKSVCLFTDFDSQTNVSQSKDSDVYITDKCVLDMRSMDFKSNSAVAWSNKSDFACANAFNNSIIPEDTFFPSSDVPCDVKLVEKSFETDTNLNFQNLSVIGFRILLLKVAGFNLLMTLRLWSSRAKRSGSGVKQTLNFDLLKLAGDVESNPGPTSATMDWIWRILFLVGAATGAHSGPQVQLQESGGGLAQAGGSLRLSCAASGRTFSMGWFRQAPGKEREFVAAITYSGGSPYYASSVRGRFTISRDNAKNTVYLQMNSLKPEDTAVYYCAANPTYGSDWNAENWGQGTQVTVSSGSGGGGSGGGGSGGGGSFEQVQLQQPGAELVKPGASVKMSCKASGYAFSSYWINWMKQKPGQGLEWIGQIYPGDGDTNYNGKFKGRATLTADTSSSTAYMQLSSLTSEDSAVYFCARSITTVVGCAMDYWGQGTSVTVSSTREDLKNVFPPEVAVFEPSKAEIAHTQKATLVCLATGFYPDHVELSWWVNGKEVHSGVCTDPQPLKEQPALNDSRYCLSSRLRVSATFWQNPRNHFRCQVQFYGLSENDEWTQDRAKPVTQIVSAEAWGRADCGITSASYHQGVLSATILYEILLGKATLYAVLVSALVLMAMVKRKDSRGRAKRSGSGATNFSLLKQAGDVEENPGPSRGHMTEYKPTVRLATRDDVPRAVRTLAAAFADYPATRHTVDPDRHIERVTELQELFLTRVGLDIGKVWVADDGAAVAVWTTPESVEAGAVFAEIGPRMAELSGSRLAAQQQMEGLLAPHRPKEPAWFLATVGVSPDHQGKGLGSAVVLPGVEAAERAGVPAFLETSAPRNLPFYERLGFTVTADVEVPEGPRTWCMTRKPGA
B2: 22126 (protein)
chain: MALPVTALLLPLALLLHAARPEVQLVESGGGLVQPGGSLRLSCAASGFSFSDFWMSWVRQAPGKGLEWVATISQAGSEKDYVDSVKGRFTISRDNAKKSLYLQMNSLRAEDTAVYYCASGVYSFDYRGQGTLVTVSSGTGGGGSGGGGSGGGGSEFDIQMTQSPSSLSASVGDRVTITCKASDHINNWLAWYQQKPGQAPKLLIYGATTLETGVPSRFSGSGSGTDYTLTISSLQPEDFATYYCQQSWNTPWTFGQGTKLEIKRLEDLKNVFPPEVAVFEPSKAEIAHTQKATLVCLATGFYPDHVELSWWVNGKEVHSGVCTDPQPLKEQPALNDSRYCLSSRLRVSATFWQNPRNHFRCQVQFYGLSENDEWTQDRAKPVTQIVSAEAWGRADCGITSASYHQGVLSATILYEILLGKATLYAVLVSALVLMAMVKRKDSRGRAKRSGSGATNFSLLKQAGDVEENPGPTSATMDWIWRILFLVGAATGAHSGPQVQLQESGGGLAQAGGSLRLSCAASGRTFSMGWFRQAPGKEREFVAAITYSGGSPYYASSVRGRFTISRDNAKNTVYLQMNSLKPEDTAVYYCAANPTYGSDWNAENWGQGTQVTVSSGSGGGGSGGGGSGGGGSFEQVQLQQPGAELVKPGASVKMSCKASGYAFSSYWINWMKQKPGQGLEWIGQIYPGDGDTNYNGKFKGRATLTADTSSSTAYMQLSSLTSEDSAVYFCARSITTVVGCAMDYWGQGTSVTVSSTRIQNPDPAVYQLRDSKSSDKSVCLFTDFDSQTNVSQSKDSDVYITDKCVLDMRSMDFKSNSAVAWSNKSDFACANAFNNSIIPEDTFFPSSDVPCDVKLVEKSFETDTNLNFQNLSVIGFRILLLKVAGFNLLMTLRLWSSRAKRSGSGVKQTLNFDLLKLAGDVESNPGPSRGHMTEYKPTVRLATRDDVPRAVRTLAAAFADYPATRHTVDPDRHIERVTELQELFLTRVGLDIGKVWVADDGAAVAVWTTPESVEAGAVFAEIGPRMAELSGSRLAAQQQMEGLLAPHRPKEPAWFLATVGVSPDHQGKGLGSAVVLPGVEAAERAGVPAFLETSAPRNLPFYERLGFTVTADVEVPEGPRTWCMTRKPGA
B3: SEQ ID NO: 22162: bispecific SAR construct targeting CD19 and PD1 (protein)
chain: MALPVTALLLPLALLLHAARPDIQMTQSPSSLSASVGDRVTITCKASDHINNWLAWYQQKPGQAPKLLIYGATTLETGVPSRFSGSGSGTDYTLTISSLQPEDFATYYCQQSWNTPWTFGQGTKLEIKRLEDLKNVFPPEVAVFEPSEAEISHTQKATLVCLATGFYPDHVELSWWVNGKEVHSGVCTDPQPLKEQPALNDSRYCLSSRLRVSATFWQNPRNHFRCQVQFYGLSENDEWTQDRAKPVTQIVSAEAWGRADCGFTSESYQQGVLSATILYEILLGKATLYAVLVSALVLMAMVKRKDSRGRAKRSGSGATNFSLLKQAGDVEENPGPTSATMDWIWRILFLVGAATGAHSGPEVQLLESGGGLVQPGGSLRLSCAASGSIASIHAMGWFRQAPGKEREFVAVITWSGGITYYADSVKGRFTISRDNSKNTVYLQMNSLRPEDTALYYCAGDKHQSSWYDYWGQGTLVTVSSGSGGGGSGGGGSGGGGSFEQVQLQQPGAELVKPGASVKMSCKASGYAFSSYWINWMKQKPGQGLEWIGQIYPGDGDTNYNGKFKGRATLTADTSSSTAYMQLSSLTSEDSAVYFCARSITTVVGCAMDYWGQGTSVTVSSTRIQNPDPAVYQLRDSKSSDKSVCLFTDFDSQTNVSQSKDSDVYITDKCVLDMRSMDFKSNSAVAWSNKSDFACANAFNNSIIPEDTFFPSPESSCDVKLVEKSFETDTNLNFQNLSVIGFRILLLKVAGFNLLMTLRLWSSRAKRSGSGVKQTLNFDLLKLAGDVESNPGPSRGHMTEYKPTVRLATRDDVPRAVRTLAAAFADYPATRHTVDPDRHIERVTELQELFLTRVGLDIGKVWVADDGAAVAVWTTPESVEAGAVFAEIGPRMAELSGSRLAAQQQMEGLLAPHRPKEPAWFLATVGVSPDHQGKGLGSAVVLPGVEAAERAGVPAFLETSAPRNLPFYERLGFTVTADVEVPEGPRTWCMTRKPGA

Assays:
Assay type in all cases: cell-based
Nalm6 cells = experiment: JNG assay, co-culture with Nalm6 cells; settings: for NFAT-GFP ASSAY: Nalm6: co-culture with Nalm6
Outline: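 Read-out: % GFP-positive cells by flow cytometry after ~4 to 18 h coculture of SAR-transduced JNG cells with targets (E:T about 1:2). Scores reflect GFP induction above parental JNG controls: +/- ≈5%, + ≈10%, up to 5+ ≈50%.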

RS;411 = experiment: JNG assay, co-culture with RS;411 cells; settings: for NFAT-GFP ASSAY: RS411: co-culture with RS411
Experimental: Cellular supernatant is collected and assayed for the induction of cytokines (e.g., IL2).
JNG (Jurkat cells expressing EGFP under an NFAT promoter) were infected with lentiviral vectors encoding different single chain and multi-chain SARs by spinfection in the presence of 8 µg/ml of Polybrene® (Sigma, Catalog no. H9268). The Jurkat-NFAT-GFP cells are engineered in such a way that the IL-2 promoter, which carries NFAT binding sites, is cloned upstream of the GFP gene. These cells have been used to study signaling via TCR and CAR. The different SARs were stably expressed in Jurkat NFAT-GFP cells by lentiviral mediated gene transfer, followed by selection with puromycin or blasticidin. No drug selection was used in case the construct lacked an antibiotic resistance gene. The SAR-expressing Jurkat-NFAT-GFP cells were cocultured with the target cells at E:T ratio of approximately 1:2 for approximately 4 hours to 18 hours. When the interaction between SIRs and their target antigen results in activation of the NFAT pathway, GFP expression is induced. […] GFP expression was monitored by FACS analysis. The Jurkat-NFAT-GFP (parental) cells were used as control. The structure of different constructs can be determined based on their names. […] The sequence of the other constructs in the table can be similarly determined from their names and by referring to the different Tables of this disclosure that provide the names and SEQ ID NO of the different modules. Alternatively, the composition and modular architecture of the different SAR constructs can be determined from their sequences by bioinformatics tools, including using nucleic acid and amino acids homology searches. A SAR is considered positive in the assay in case the SAR expressing Jurkat-NFAT-GFP cells show greater % GFP positive cells when cultured with the target cell line as compared to parental Jurkat-NFAT-GFP cells. […] In general, the number +/-, +, 2+, 3+, 4+, 5+ refer to approximately 5%, 10%, 20%, 30%, 40% and 50% GFP positive cells. The % of GFP induction in the above assay is dependent not only the relative strength of the SAR but also, among other factors, on the relative level of expression of the SAR in the JNG cells and the relative level of expression of the target antigen in the target cell line. To control for the difference in gene transduction efficiency of the different SAR constructs, the experiment was conducted with JNG cells transduced with SAR constructs co-expressing a drug resistance gene (e.g., puromycin or PAC) followed by drug selection to generate a stable population of SAR-expressing cells. It is to be noted that the drug resistance gene (e.g., PAC) in the SAR constructs is optional and in vivo studies were conducted with SAR constructs lacking the PAC gene.

RAJI cells = experiment: JNG assay, co-culture with RAJI cells
Outline: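 Read-out is NFAT-driven GFP measured by flow cytometry after ~4–18 h co-culture of SAR-expressing JNG cells with target cells (E:T about 1:2). SARs were introduced by lentiviral spinfection and selected with puromycin or blasticidin when possible; scores (+/- to 5+ ≈ 5–50% GFP+) are relative to parental JNG cells.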

| Molecule | NFAT-GFP ASSAY: Nalm6 (Nalm6 cells) | NFAT-GFP ASSAY: RS411 (RS;411) | NFAT-GFP ASSAY: Raji (RAJI cells; JNG cells expressing construct, co-culture with Raji) | GFP induction / activity (RAJI cells; co-culture with RAJI cells) | GFP induction / activity (Nalm6 cells; co-culture with Nalm6 cells) | GFP induction / activity (RS;411; co-culture with RS;411 cells) |
| --- | --- | --- | --- | --- | --- | --- |
| B1 | 2+ (refer to approximately 5%, 10%, 20%, 30%, 40% and 50% GFP positive cells) | 2+ (refer to approximately 5%, 10%, 20%, 30%, 40% and 50% GFP positive cells) |  |  |  |  |
| B2 | 5+ (refer to approximately 5%, 10%, 20%, 30%, 40% and 50% GFP positive cells) | +/- (refer to approximately 5%, 10%, 20%, 30%, 40% and 50% GFP positive cells) | 5+ (refer to approximately 5%, 10%, 20%, 30%, 40% and 50% GFP positive cells) |  |  |  |
| B3 |  |  |  | robust activity | robust activity | robust activity |
